Results on one molecule are retold here after US20060148057A1, “Thioredoxin mutants and uses thereof” (priority 2002, published 2006).

For this assay, the system named is BAEC. The assay can be described thus: GFP killing assay, TNF+CHX-induced EC death. The class given is cell-based, Bovine. The settings on record: TNF 10 ng/ml plus CHX 10 μg/ml for 24 h; vector control 25% survival. How it is done:
Trx inhibits ASK1-induced JNK activation and caspase 3 activity. BAEC were co-transfected with ASK1 and Trx constructs in 1:1 ratio as indicated: control vector alone (Ctrl), ASK1 with VC, Trx-WT, Trx-CS, Trx-C32S or Trx-C35S. 24 h post-transfection, cell lysates were used to examine JNK and caspase 3 activity. […] JNK activity was measured by an in vitro kinase assay GST-c-Jun as a substrate. Trx expression was determined by Western blot anti-Flag. […] Caspase 3 activity was measured by Sigma's Caspase 3 Fluorometric Assay Kit in the absence or presence of caspase 3 inhibitor Ac-DEVD-CHO. Assay was performed as duplicates. Caspase 3 activities were normalized with the Ctrl group (as zero). Data are presented from mean of two independent experiments. […] 48 h after transfection, GFP-positive cells were counted as survival cells. […] GFP-positive cells were counted as survival cells. […]
Quantitation of cell killing: Cell killing assay was performed as described previously with a modification (Slowik M R et al. Evidence that tumor necrosis factor triggers apoptosis in human endothelial cells by interleukin-1-converting enzyme-like protease- dependent and -independent pathways. Lab Invest. 77:257-67 (1997)). […] GFP-positive cells were visualized under a fluorescence microscope and counted as number of survival cells. […]

B1: Trx-C35S: C35S single mutant of Trx at the catalytic site, SEQ ID NO:3 (protein)
chain: MVKQIESKTAFQEALDAAGDKLVVVDFSATWCGPSKMIKPFFHSLSEKYSNVIFLEVDVDDCQDVASECEVKCMPTFQFFKKGQKVGEFSGANKEKLEATINELV
In the case of B1, the “survival after TNF+CHX (GFP-positive cells, Ctrl as 100%)” value is recorded as 100±12%.
